Assay results taken from patent publication US20240376224A1 (University of California, published 2024).

T1: full-length (uncleaved) human CDCP1 on cells (human, UniProt Q9H5V8 30-836)
T1 construct: HPAC cells express mostly uncleaved CDCP1 (endogenous); also called fl-CDCP1; uncleaved CDCP1 on HPAC cells
T1 sequence: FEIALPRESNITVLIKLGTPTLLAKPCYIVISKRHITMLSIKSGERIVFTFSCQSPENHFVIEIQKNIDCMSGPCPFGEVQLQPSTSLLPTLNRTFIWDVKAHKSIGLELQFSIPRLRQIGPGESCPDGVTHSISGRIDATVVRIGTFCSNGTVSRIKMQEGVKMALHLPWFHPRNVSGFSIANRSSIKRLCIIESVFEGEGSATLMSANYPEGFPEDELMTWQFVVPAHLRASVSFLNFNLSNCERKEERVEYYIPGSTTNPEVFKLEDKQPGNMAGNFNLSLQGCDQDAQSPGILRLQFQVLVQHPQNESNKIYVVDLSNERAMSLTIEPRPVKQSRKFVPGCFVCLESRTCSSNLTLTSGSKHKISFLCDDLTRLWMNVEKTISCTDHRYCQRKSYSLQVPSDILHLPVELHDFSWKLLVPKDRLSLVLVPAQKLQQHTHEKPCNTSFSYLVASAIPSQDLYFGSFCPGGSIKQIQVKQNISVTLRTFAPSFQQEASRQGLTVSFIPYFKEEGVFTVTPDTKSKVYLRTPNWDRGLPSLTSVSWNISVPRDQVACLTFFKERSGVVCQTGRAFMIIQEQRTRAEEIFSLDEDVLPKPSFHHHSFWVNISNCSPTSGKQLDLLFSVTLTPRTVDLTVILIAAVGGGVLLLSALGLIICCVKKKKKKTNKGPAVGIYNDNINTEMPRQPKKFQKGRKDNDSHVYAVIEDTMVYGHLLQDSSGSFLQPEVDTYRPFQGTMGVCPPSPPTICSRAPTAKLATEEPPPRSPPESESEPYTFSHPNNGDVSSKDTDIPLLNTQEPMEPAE

T2: c-CDCP1 (Cut 3) on HEK293T cells (human, UniProt Q9H5V8 30-369; Q9H5V8 370-836)
T2 construct: T2A remnants not described; also called HEK293T c-CDCP1
T2 sequence 1: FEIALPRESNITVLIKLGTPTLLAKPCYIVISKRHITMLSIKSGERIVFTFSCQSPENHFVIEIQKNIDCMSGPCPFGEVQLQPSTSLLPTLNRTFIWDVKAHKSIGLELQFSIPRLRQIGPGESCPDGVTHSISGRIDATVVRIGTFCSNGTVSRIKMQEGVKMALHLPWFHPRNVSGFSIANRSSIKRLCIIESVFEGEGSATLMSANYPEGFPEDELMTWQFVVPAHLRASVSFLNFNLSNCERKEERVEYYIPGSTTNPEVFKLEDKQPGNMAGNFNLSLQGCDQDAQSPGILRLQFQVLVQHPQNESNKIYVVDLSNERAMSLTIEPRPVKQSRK
T2 sequence 2: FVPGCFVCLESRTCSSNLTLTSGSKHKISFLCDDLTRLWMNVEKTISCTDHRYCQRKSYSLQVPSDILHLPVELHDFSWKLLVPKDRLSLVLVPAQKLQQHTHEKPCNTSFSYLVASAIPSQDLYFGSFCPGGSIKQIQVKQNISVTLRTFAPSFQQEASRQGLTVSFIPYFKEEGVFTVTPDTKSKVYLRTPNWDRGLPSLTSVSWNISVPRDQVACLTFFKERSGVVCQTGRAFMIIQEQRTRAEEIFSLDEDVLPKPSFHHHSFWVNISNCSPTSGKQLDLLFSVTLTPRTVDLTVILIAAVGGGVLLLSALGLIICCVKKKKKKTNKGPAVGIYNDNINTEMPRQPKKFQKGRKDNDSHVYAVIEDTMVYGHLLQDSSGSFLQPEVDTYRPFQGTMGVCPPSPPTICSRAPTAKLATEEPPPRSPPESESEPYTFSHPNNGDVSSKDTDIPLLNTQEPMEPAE

T3: c-CDCP1-Fc (Cut 2) (human, UniProt Q9H5V8 30-368; Q9H5V8 369-667)
T3 construct: Co-transfection of NTF and CTF-Fc plasmids; not shown: Fc domain
T3 sequence 1: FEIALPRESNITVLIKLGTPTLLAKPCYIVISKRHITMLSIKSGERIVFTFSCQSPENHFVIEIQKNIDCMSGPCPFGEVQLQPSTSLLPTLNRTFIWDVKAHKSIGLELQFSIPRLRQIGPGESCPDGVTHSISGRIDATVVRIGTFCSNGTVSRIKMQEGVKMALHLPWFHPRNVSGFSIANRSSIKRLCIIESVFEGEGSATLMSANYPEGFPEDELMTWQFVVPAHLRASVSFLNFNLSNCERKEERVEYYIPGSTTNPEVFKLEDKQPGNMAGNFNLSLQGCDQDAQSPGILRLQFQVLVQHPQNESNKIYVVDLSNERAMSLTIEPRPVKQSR
T3 sequence 2: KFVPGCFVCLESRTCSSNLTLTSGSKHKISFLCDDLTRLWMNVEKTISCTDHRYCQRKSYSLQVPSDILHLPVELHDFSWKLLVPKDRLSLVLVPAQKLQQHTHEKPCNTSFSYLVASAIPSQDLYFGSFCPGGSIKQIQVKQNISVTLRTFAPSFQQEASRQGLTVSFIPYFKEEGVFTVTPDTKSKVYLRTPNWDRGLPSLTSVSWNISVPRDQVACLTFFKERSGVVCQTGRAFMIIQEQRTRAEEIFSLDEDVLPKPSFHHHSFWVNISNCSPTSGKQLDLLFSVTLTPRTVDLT

T4: c-CDCP1-Fc (Cut 1) (human, UniProt Q9H5V8 30-365; Q9H5V8 366-667)
T4 construct: Co-transfection of NTF and CTF-Fc plasmids; not shown: Fc domain
T4 sequence 1: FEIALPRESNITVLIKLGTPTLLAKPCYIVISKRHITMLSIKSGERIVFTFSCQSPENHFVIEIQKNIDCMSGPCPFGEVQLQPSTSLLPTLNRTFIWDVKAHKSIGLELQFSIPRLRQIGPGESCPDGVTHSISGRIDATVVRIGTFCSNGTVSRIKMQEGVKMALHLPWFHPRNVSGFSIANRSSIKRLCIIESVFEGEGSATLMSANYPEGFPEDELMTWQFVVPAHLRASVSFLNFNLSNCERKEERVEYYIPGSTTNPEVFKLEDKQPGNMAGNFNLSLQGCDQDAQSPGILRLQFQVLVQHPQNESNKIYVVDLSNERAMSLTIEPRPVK
T4 sequence 2: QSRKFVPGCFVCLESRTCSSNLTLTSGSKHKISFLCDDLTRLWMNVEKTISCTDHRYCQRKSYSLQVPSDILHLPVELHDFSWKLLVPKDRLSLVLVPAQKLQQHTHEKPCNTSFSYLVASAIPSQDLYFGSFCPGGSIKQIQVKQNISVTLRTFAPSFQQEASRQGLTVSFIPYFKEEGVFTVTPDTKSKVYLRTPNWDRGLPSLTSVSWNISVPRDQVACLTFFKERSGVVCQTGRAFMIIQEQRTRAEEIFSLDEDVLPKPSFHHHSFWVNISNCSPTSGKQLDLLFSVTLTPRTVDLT

T5: c-CDCP1-Fc (Cut 3) (human, UniProt Q9H5V8 30-369; Q9H5V8 370-667)
T5 construct: Co-transfection of NTF and CTF-Fc plasmids; not shown: Fc domain
T5 sequence 1: T2 sequence 1
T5 sequence 2: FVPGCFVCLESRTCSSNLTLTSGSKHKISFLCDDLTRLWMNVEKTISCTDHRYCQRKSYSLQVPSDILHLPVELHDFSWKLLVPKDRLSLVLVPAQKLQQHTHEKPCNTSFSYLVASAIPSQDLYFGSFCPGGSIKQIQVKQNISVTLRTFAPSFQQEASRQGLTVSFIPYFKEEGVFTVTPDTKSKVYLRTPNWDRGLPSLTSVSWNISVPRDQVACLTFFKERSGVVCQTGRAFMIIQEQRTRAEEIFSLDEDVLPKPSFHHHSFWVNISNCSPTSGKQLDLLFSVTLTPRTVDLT

T6: NTF immobilized via the N-termini (human, UniProt Q9H5V8 30-367, limits assumed)
T6 sequence: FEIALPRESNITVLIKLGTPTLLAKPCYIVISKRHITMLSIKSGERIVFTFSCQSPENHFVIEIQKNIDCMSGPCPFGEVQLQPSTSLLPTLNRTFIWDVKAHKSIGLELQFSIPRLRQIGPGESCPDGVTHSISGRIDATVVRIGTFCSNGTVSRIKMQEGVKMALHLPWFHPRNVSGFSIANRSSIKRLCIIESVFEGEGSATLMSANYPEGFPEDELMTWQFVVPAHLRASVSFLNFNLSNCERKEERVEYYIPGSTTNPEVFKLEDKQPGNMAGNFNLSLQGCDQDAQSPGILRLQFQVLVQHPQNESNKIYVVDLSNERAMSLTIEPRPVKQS

T7: c-CDCP1 (Cut 3) ectodomain (human, UniProt Q9H5V8 30-369; Q9H5V8 370-667)
T7 construct: Made by co-transfection of NTF and CTF plasmids, purified by Ni-NTA (tag not described); also called cCDCP1 ECD cut 3
T7 sequence 1: T2 sequence 1
T7 sequence 2: T5 sequence 2

B1: IgG 4A06 (antibody, V domains shown)
VH: EVQLVESGGGLVQPGGSLRLSCAASGFNLSYYYIHWVRQAPGKGLEWVASIYSSSSYTSYADSVKGRFTISADTSKNTAYLQMNSLRAEDTAVYYCARAYYGFDYWGQGTLVTVSS
VL: DIQMTQSPSSLSASVGDRVTITCRASQSVSSAVAWYQQKPGKAPKLLIYSASSLYSGVPSRFSGSRSGTDFTLTISSLQPEDFATYYCQQSYYYYPITFGQGTKVEIK
B2: CL03 Fab (Fab, V domains shown)
VH: EVQLVESGGGLVQPGGSLRLSCAASGFNFSSYSIHWVRQAPGKGLEWVASIYPYSGSTYYADSVKGRFTISADTSKNTAYLQMNSLRAEDTAVYYCARQSHSYYSHTWWVSYGMDYWGQGTLVTVSS
VL: DIQMTQSPSSLSASVGDRVTITCRASQSVSSAVAWYQQKPGKAPKLLIYSASSLYSGVPSRFSGSRSGTDFTLTISSLQPEDFATYYCQQSGQRPITFGQGTKVEIKR
notes: also called Fab CL03

Tests used:
[1] = molecular target: T1, full-length (uncleaved) human CDCP1 on …; experiment: flow cytometry, dose response on HEK293T-flCDCP1 cells (CDCP1 WT)
[2] = molecular target: T2, c-CDCP1 (Cut 3) on HEK293T cells; experiment: flow cytometry, dose response on HEK293T-cCDCP1 cells (CDCP1 WT)
c-CDCP1-Fc (Cut 2) = molecular target: T3, c-CDCP1-Fc (Cut 2); experiment: BLI (Octet), table of in vitro binding affinities
Protocol: (§1) BLI experiments were performed using an Octet RED384 instrument (ForteBio). Biotinylated proteins were immobilized on a streptavidin (SA) biosensor and His-tagged proteins were immobilized on a Ni-NTA biosensor. Different concentrations of analyte in PBS pH 7.4+0.05% Tween-20+0.2% BSA (PBSTB) were used as analyte. Affinities (KDS) were calculated from a global fit (1:1) of the data using the Octet RED384 software.

c-CDCP1-Fc (Cut 1) = molecular target: T4, c-CDCP1-Fc (Cut 1); experiment: BLI (Octet), table of in vitro binding affinities
Protocol: as §1

c-CDCP1-Fc (Cut 3) = molecular target: T5, c-CDCP1-Fc (Cut 3); experiment: BLI (Octet), table of in vitro binding affinities
Protocol: as §1

[3] = molecular target: T6, NTF immobilized via the N-termini; experiment: multipoint BLI (Octet), His-NTF on a Ni-NTA biosensor, CL03 Fab at 100, 50, 25, 12.5, 6.25 nM
Protocol: as §1
(§2) To investigate the binding mechanism of CL03, the binding of CL03 to different CDCP1 antigens was measured by BLI using standard methods. In instances when the C-termini of the NTF was immobilized either via an Fc domain or directly to the biosensor surface, there was no binding of CL03 (FIG. 6A-FIG. 6B). In instances when the NTF was immobilized via the N-termini, CL03 bound NTF at similar affinity to the full c-CDCP1 antigen (FIG. 6B-FIG. 6C). Additionally, it was observed that CL03 recognized an uncleaved CDCP1 variant where a 16-amino acid linker was inserted between CUB1 and CUB2 at the R368/K369 proteolysis site (FIG. 6D).

[4] = molecular target: T7, c-CDCP1 (Cut 3) ectodomain; experiment: multipoint BLI (Octet), c-CDCP1 (Cut 3) held by its His-tag on a Ni-NTA biosensor, CL03 Fab at 100, 50, 25, 12.5, 6.25 nM
Protocol: as §1, §2

| Binder | EC50 (read off the curve) [1] [nM] | EC50 (read off the curve) [2] [nM] | Kd (c-CDCP1-Fc (Cut 2)) [nM] | Kd (c-CDCP1-Fc (Cut 1)) [nM] | koff (c-CDCP1-Fc (Cut 1)) [s⁻¹] | kon (c-CDCP1-Fc (Cut 1)) [M⁻¹ s⁻¹] | Kd (c-CDCP1-Fc (Cut 3)) [nM] | Kd [3] [nM] | Kd [4] [nM] |
| --- | --- | --- | --- | --- | --- | --- | --- | --- | --- |
| B1 | ~1 | ~0.4 | – | – | – | – | – | – | – |
| B2 | – | – | 3.91 | 2.26 | 0.000648 | 288000 | 3.59 | 10.5 | 9.74 |
